In data set [1] the target is T1, FCoV N (Feline infectious peritonitis virus (strain 79-1146), UniProt P25909). The data set can be described thus: biolayer interferometry, His-tagged N immobilized on Ni-NTA biosensor. Format: binding. As to conditions: read-out: Kd ± SD. An excerpt:
biolayer interferometry, His-tagged N immobilized on Ni-NTA biosensor on FCoV N

Data set [2] concerns the target T1, FCoV N. The data set can be described thus: biolayer interferometry, inhibition of N binding to immobilized biotinylated vRNA […]' NCR. (In general: In BLI a coated tip is dipped into the sample, and binding shifts an interference pattern.)
Data set [3] addresses T1, FCoV N. The data set can be described thus: filter binding, Lineweaver-Burk secondary plot, N with radiolabeled vRNA […]' NCR.
In data set [4] the target is T2, FCoV nucleocapsid protein N (Feline alphacoronavirus (FCoV/FIPV) …, UniProt P25909 1-377).
T2 sequence: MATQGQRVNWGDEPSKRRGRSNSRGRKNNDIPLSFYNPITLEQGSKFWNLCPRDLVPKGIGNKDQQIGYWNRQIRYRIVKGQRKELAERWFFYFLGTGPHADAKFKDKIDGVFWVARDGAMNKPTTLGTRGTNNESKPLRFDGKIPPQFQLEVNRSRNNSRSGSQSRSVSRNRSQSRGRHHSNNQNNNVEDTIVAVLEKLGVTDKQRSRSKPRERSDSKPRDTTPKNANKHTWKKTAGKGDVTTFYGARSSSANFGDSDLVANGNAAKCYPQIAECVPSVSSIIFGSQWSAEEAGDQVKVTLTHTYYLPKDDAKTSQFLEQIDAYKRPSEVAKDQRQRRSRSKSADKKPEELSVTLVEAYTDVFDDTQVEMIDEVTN
The data set can be described thus: filter binding; 160 mM NaCl; Filter binding: 40 mM Tris-HCl pH 7.4, 80 mM NaCl (160, 320 in series), 20 mM KCl, 1 mM DTT, room temperature, 30-45 min; BLI: 20 mM Tris-HCl pH 7.4, 80 mM NaCl, 20 mM KCl, 1 mM DTT, room temperature. The settings on record: protein: recombinant; tags: C-terminal His (pET-30a(+), NdeI/HindIII); chain copies: 2; label: [alpha-32P]GTP, internal.

Data set [5] deals with T2, FCoV nucleocapsid protein N. The data set can be described thus: filter binding; 320 mM NaCl; Filter binding: 40 mM Tris-HCl pH 7.4, 80 mM NaCl (160, 320 in series), 20 mM KCl, 1 mM DTT, room temperature, 30-45 min; BLI: 20 mM Tris-HCl pH 7.4, 80 mM NaCl, 20 mM KCl, 1 mM DTT, room temperature. The settings on record: protein: recombinant; tags: C-terminal His (pET-30a(+), NdeI/HindIII); chain copies: 2; label: [alpha-32P]GTP, internal.

Data set [6] has the same target. The data set can be described thus: filter binding; 80 mM NaCl; Filter binding: 40 mM Tris-HCl pH 7.4, 80 mM NaCl (160, 320 in series), 20 mM KCl, 1 mM DTT, room temperature, 30-45 min; BLI: 20 mM Tris-HCl pH 7.4, 80 mM NaCl, 20 mM KCl, 1 mM DTT, room temperature. As to conditions: protein: recombinant; tags: C-terminal His (pET-30a(+), NdeI/HindIII); chain copies: 2; label: [alpha-32P]GTP, internal.

Data set [7] shares this target. Kind of data set: BLI; 80 mM NaCl; kass 3.195e5 M-1s-1, kdis 5.931e-3 s-1; Filter binding: 40 mM Tris-HCl pH 7.4, 80 mM NaCl (160, 320 in series), 20 mM KCl, 1 mM DTT, room temperature, 30-45 min; BLI: 20 mM Tris-HCl pH 7.4, 80 mM NaCl, 20 mM KCl, 1 mM DTT, room temperature. As to conditions: protein: recombinant; tags: C-terminal His (pET-30a(+), NdeI/HindIII); chain copies: 2.

Regarding `O=C(O)c1cccc2c1NC(c1cccc(Br)c1)C1CC=CC21` (stereo not shown) [K31, 4-(3-Bromophenyl)-3a,4,5,9b-tetrahydro-3H-cycloppenta [c] quinoline-6-carboxylix acid], in data set [1], the Kd – broadly, the concentration at which binding is half-saturated – is 350 ± 17 nM. Further, the 50% inhibitory concentration (IC50) (commonly the concentration at which inhibition is half-maximal) in data set [2] is about 850 nM. In addition, the Ki (as a rule, the dissociation constant of the complex between target and ligand, obtained from inhibition or displacement) in data set [3] is about 246 nM.
Take ACUUUUAAAGUAAAGUGAGUGUAGCGUGGCUAUAAC (ssRNA) [vRNA 5' NCR (36 nt, radiolabeled)]: the Kd turned out to be 30.7 ± 7.5 nM in data set [4], 35 ± 7 nM in data set [5] and 29 ± 1.6 nM in data set [6].
ACUUUUAAAGUAAAGUGAGUGUAGCGUGGCUAUAAC (ssRNA) [vRNA 5' NCR (36 nt, biotinylated)]: the Kd in data set [7] amounted to 18 ± 1.8 nM.

These data come from article PMC10011503, “A novel compound targets the feline infectious peritonitis virus nucleocapsid protein and inhibits viral replication in cell culture” (The Journal of Biological Chemistry, 2023).
